Numbering of substitutions follows the chain as printed.
Legend:
[1] = molecular target: T1, human Tissue Factor (hTF) (human, UniProt P13726 33-295); assay: cell-based or functional assay
Relipidated TF [2] = assay: cell-based or functional assay
[3] = molecular target: T1, human Tissue Factor (hTF); assay: cell-based or functional assay; remark: listed apart in the source
Relipidated TF [4] = molecular target: Relipidated TF (UniProt P13726 33-295, limits assumed); assay: cell-based or functional assay
[5] = molecular target: T2, pig TF ECD-His (TF-His) protein (pig (Sus scrofa)); assay: Biacore; antibody captured by anti-human IgG on CM5 chip, titration of pig TF-His, 1:1 model
T2 construct: also called pig TF-His; pTF
T2 chain: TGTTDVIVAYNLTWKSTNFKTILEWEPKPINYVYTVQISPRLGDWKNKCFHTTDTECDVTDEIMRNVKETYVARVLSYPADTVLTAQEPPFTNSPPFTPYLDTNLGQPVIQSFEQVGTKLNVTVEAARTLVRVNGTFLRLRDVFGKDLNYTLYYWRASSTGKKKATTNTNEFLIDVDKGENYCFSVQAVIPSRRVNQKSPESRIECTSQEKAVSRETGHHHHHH
Protocol: The ability of certain antibodies was tested for binding to pig TF. For pig TF Biacore-based measurements, a given anti-TF antibody was captured by an anti-human IgG antibody covalently coupled to a CM5 chip (GE Healthcare Bio-Sciences). Association between the anti-TF antibodies and a five-point three-fold titration of pig TF-His starting at 100 nM was measured for 180 to 240 sec. Subsequently, dissociation between the anti-TF antibody and TF-His was measured for 1800 sec. Kinetic data was analyzed and fitted globally using a 1:1 binding model.

[6] = molecular target: T3, rabbit TF ECD-His (TF-His) protein (rabbit (Oryctolagus cuniculus), UniProt P24055 33-250); assay: Biacore; antibody captured by anti-human IgG on CM5 chip, titration of rabbit TF-His, 1:1 model
T3 construct: also called rabbit TF-His
Protocol: The ability of certain antibodies was tested for binding to rabbit TF. For rabbit TF Biacore-based measurements, a given anti-TF antibody was captured by an anti-human IgG antibody covalently coupled to a CM5 chip (GE Healthcare Bio-Sciences). Association between the anti-TF antibodies and a five-point three-fold titration of rabbit TF-His starting at 100 nM was measured for 180 to 240 sec. Subsequently, dissociation between the anti-TF antibody and TF-His was measured for 1800 sec. Kinetic data was analyzed and fitted globally using a 1:1 binding model.

human Tissue Factor (TF) = human Tissue Factor (TF) (human, UniProt P13726 33-295); assay: cell-based or functional assay

T3 sequence (P24055 other isoform, or with tags, fused parts or gaps): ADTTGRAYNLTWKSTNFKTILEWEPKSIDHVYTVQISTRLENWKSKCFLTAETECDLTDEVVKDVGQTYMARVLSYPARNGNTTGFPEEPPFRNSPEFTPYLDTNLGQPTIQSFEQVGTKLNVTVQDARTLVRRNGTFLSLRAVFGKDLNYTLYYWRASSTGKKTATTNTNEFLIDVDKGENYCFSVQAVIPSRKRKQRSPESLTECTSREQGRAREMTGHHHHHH

B1: anti-TF antibody 54E (antibody, human IgG1, V domains shown)
VH: QVQLVQSGAEVKKPGASVKVSCKASGYTFANYYMHWVRQAPGQGLEWMGIINPSGGITVYAQKFQGRVTMTRDTSTSTVYMELSSLRSEDTAVYYCARGGSKVAALAFDIWGQGTMVTVSS
VL: DIQMTQSPSSLSASVGDRVTITCQASQDISNSLNWYQQKPGKAPKLLIYDASNLETGVPSRFSGSRSGTDFTFTISSLQPEDIATYYCQQYNFHPLTFGGGTKVEIK
[1]
  IC50, cell viability of A431 cells, Secondary ADC (antibody with anti-human Fc Fab:MMAF), Continuous (FIG. 18B): 0.11 nM
Relipidated TF [2]
  % ETP, TGA with 10 min antibody pre-incubation, 10 nM antibody: 83%
  % Peak IIa, TGA with 10 min antibody pre-incubation, 10 nM antibody: 43%
  % Peak IIa, TGA with 10 min antibody pre-incubation, 50 nM antibody: 16%
  % Peak IIa, TGA with 10 min antibody pre-incubation, 100 nM antibody: 13%
  % ttPeak, TGA with 10 min antibody pre-incubation, 10 nM antibody: 96%
  % ttPeak, TGA with 10 min antibody pre-incubation, 50 nM antibody: 303%
  ETP, TGA with 10 min antibody pre-incubation, 10 nM antibody: 1520 nM·min
  Lag Time, TGA with 10 min antibody pre-incubation, 10 nM antibody: 6.5 min
  Lag Time, TGA with 10 min antibody pre-incubation, 50 nM antibody: 18.3 min
  Lag Time, TGA with 10 min antibody pre-incubation, 100 nM antibody: 22.3 min
  Peak IIa, TGA with 10 min antibody pre-incubation, 10 nM antibody: 121 nM
  Peak IIa, TGA with 10 min antibody pre-incubation, 50 nM antibody: 44 nM
  Peak IIa, TGA with 10 min antibody pre-incubation, 100 nM antibody: 37 nM
  ttPeak, TGA with 10 min antibody pre-incubation, 10 nM antibody: 13.7 min
  ttPeak, TGA with 10 min antibody pre-incubation, 50 nM antibody: 28.2 min
  ttPeak, TGA with 10 min antibody pre-incubation, 100 nM antibody: 33 min

B2: 43Ea-vc-MMAE (antibody, IgG1, V domains shown)
VH: QVQLQESGPGLVKPSQTLSLTCTVSGGSISSGQYWSWIRQHPGKGLEWIGEIYYSGSTRYNPSLKSRVTISVDTSKNQFSLKLSSVTAADTAVYYCARDTPYYYDGGYYYYMDVWGKGTTVTVSS
VL: EIVLTQSPGTLSLSPGERATLSCRASQSVSSSYLAWYQQKPGQAPRLLIYGASSRATGIPDRFSGSGSGTDFTLTISRLEPEDFAVYYCQQVGVVPYTFGGGTKVEIK
modifications: MC-vc-PAB-MMAE on cysteines of the partially reduced antibody (chain and positions not stated), DAR 3-4
[1]
  IC50, cell viability of A431 cells, Primary ADC, Continuous (FIG. 20A): 0.09 nM
  IC50, cell viability of HPAF-II cells, Primary ADC, Continuous (FIG. 22E): 0.06 nM
  IC50, cell viability of MDA-MB-231 cells, Primary ADC, Continuous (FIG. 22D): 0.15 nM
[3]
  IC50, cell viability of A431 cells, Primary ADC, 4 hr, followed by washout (FIG. 20B): 0.43 nM
  IC50, cell viability of A431 cells, Primary ADC, 4 hr, followed by washout, absence of FVIIa (FIG. 21A): 0.24 nM

B3: anti-TF antibody 43D7 conjugated to MC-vc-PAB-MMAE (antibody, IgG1, V domains shown)
VH: QVQLQQWGAGLLKPSETLSLTCAVYGGSLSGYYWSWIRQPPGKGLEWIGEIGASGSTRYNPSLKSRVTISVDTSKNQFSLKLSSVTAADTAVYYCARDTPYYYEGGYYYYMDVWGKGTTVTVSS
VL: B2 VL with Q27D, S30D, S53F, T57N, V92A
modifications: MC-vc-PAB-MMAE on cysteines of the partially reduced antibody (chain and positions not stated), DAR 3-4
[1]
  IC50, cell viability of A431 cells, Primary ADC, Continuous (FIG. 20A): 0.06 nM
  IC50, cell viability of HPAF-II cells, Primary ADC, Continuous (FIG. 22E): 0.05 nM
  IC50, cell viability of MDA-MB-231 cells, Primary ADC, Continuous (FIG. 22D): 0.14 nM
[3]
  IC50, cell viability of A431 cells, Primary ADC, 4 hr, followed by washout (FIG. 20B): 0.28 nM
  IC50, cell viability of A431 cells, Primary ADC, 4 hr, followed by washout, absence of FVIIa (FIG. 21A): 0.14 nM

B4: anti-TF antibody 43B1 conjugated to MC-vc-PAB-MMAE (antibody, IgG1, V domains shown)
VH: B2 VH with T100A, D105G
VL: B2 VL with Q27E, S30D, S54T, A56Q, V92A
modifications: MC-vc-PAB-MMAE on cysteines of the partially reduced antibody (chain and positions not stated), DAR 3-4
[1]
  IC50, cell viability of A431 cells, Primary ADC, Continuous (FIG. 20A): 0.08 nM
  IC50, cell viability of HPAF-II cells, Primary ADC, Continuous (FIG. 22E): 0.05 nM
  IC50, cell viability of MDA-MB-231 cells, Primary ADC, Continuous (FIG. 22D): 0.14 nM
[3]
  IC50, cell viability of A431 cells, Primary ADC, 4 hr, followed by washout (FIG. 20B): 0.36 nM
  IC50, cell viability of A431 cells, Primary ADC, 4 hr, followed by washout, absence of FVIIa (FIG. 21A): 0.19 nM

B5: anti-TF antibody 39A (antibody, human IgG1, V domains shown)
VH: QVQLVQSGAEVKKPGSSVKVSCKASGGTFSSNAIGWVRQAPGQGLEWMGSIIPIIGFANYAQKFQGRVTITADESTSTAYMELSSLRSEDTAVYYCARDSGYYYGASSFGMDVWGQGTTVTVSS
VL: EIVMTQSPATLSVSPGERATLSCRASQSVSSNLAWYQQKPGQAPRLLIYGASTRATGIPARFSGSGSGTEFTLTISSLQSEDFAVYYCEQYNNLPLTFGGGTKVEIK
[1]
  IC50, cell viability of A431 cells, Secondary ADC (antibody with anti-human Fc Fab:MMAF), Continuous (FIG. 18B): 0.08 nM
Relipidated TF [2]
  % ETP, TGA with 10 min antibody pre-incubation, 10 nM antibody: 0%
  % Peak IIa, TGA with 10 min antibody pre-incubation, 10 nM antibody: 13%
  % Peak IIa, TGA with 10 min antibody pre-incubation, 50 nM antibody: 8%
  % Peak IIa, TGA with 10 min antibody pre-incubation, 100 nM antibody: 7%
  % ttPeak, TGA with 10 min antibody pre-incubation, 10 nM antibody: 319%
  % ttPeak, TGA with 10 min antibody pre-incubation, 50 nM antibody: 491%
  % ttPeak, TGA with 10 min antibody pre-incubation, 100 nM antibody: 537%
  Lag Time, TGA with 10 min antibody pre-incubation, 10 nM antibody: 19.6 min
  Lag Time, TGA with 10 min antibody pre-incubation, 50 nM antibody: 30.7 min
  Lag Time, TGA with 10 min antibody pre-incubation, 100 nM antibody: 33.6 min
  Peak IIa, TGA with 10 min antibody pre-incubation, 10 nM antibody: 36 nM
  Peak IIa, TGA with 10 min antibody pre-incubation, 50 nM antibody: 22 nM
  Peak IIa, TGA with 10 min antibody pre-incubation, 100 nM antibody: 19 nM
  ttPeak, TGA with 10 min antibody pre-incubation, 10 nM antibody: 29.3 min
  ttPeak, TGA with 10 min antibody pre-incubation, 50 nM antibody: 41.4 min
  ttPeak, TGA with 10 min antibody pre-incubation, 100 nM antibody: 44.6 min

B6: 25A5 (antibody, human IgG1, V domains shown)
VH: QVQLVQSGAEVKKPGASVKVSCKASGYTFDVYGISWVRQAPGQGLEWMGWIAPYSGNTNYAQKLQGRVTMTTDTSTSTAYMELRSLRSDDTAVYYCARDAGTYSPFGYGMDVWGQGTTVTVSS
VL: DIQMTQSPSTLSASVGDRVTITCRASESISNWLAWYQQKPGKAPKLLIYKAYSLEYGVPSRFSGSGSGTEFTLTISSLQPDDFATYYCQQFQKLPPFTFGGGTKVEIK
Relipidated TF [4]
  % ETP at 10 nM Ab (TGA without antibody pre-incubation): 99%
  % Peak IIa at 10 nM Ab (TGA without antibody pre-incubation): 98%
  % Peak IIa at 50 nM Ab (TGA without antibody pre-incubation): 98%
  % Peak IIa at 100 nM Ab (TGA without antibody pre-incubation): 98%
  ETP at 10 nM Ab (TGA without antibody pre-incubation): 2270 nM·min
  ETP at 50 nM Ab (TGA without antibody pre-incubation): 2320 nM·min
  ETP at 100 nM Ab (TGA without antibody pre-incubation): 2390 nM·min
  Lag Time at 10 nM Ab (TGA without antibody pre-incubation): 4.7 min
  Lag Time at 50 nM Ab (TGA without antibody pre-incubation): 4.8 min
  Lag Time at 100 nM Ab (TGA without antibody pre-incubation): 5.1 min
  Peak IIa at 10 nM Ab (TGA without antibody pre-incubation): 343 nM
  Peak IIa at 50 nM Ab (TGA without antibody pre-incubation): 344 nM
  Peak IIa at 100 nM Ab (TGA without antibody pre-incubation): 342 nM
  ttPeak at 10 nM Ab (TGA without antibody pre-incubation): 8 min
  ttPeak at 50 nM Ab (TGA without antibody pre-incubation): 8.1 min
  ttPeak at 100 nM Ab (TGA without antibody pre-incubation): 8.5 min

B7: anti-TF antibody 25G (antibody, human IgG1, V domains shown)
VH: B6 VH with D30R, V31S, I51V, S55N, F106Y
VL: B6 VL with E27Q, N31S, Y52S, Y56S, K93S
notes: Human IgG1
[5]
  Kd: 26 nM
[6]
  Kd: 75.5 nM

B8: anti-TF antibody 25G9 (antibody, human IgG1, V domains shown)
VH: B6 VH with D30R, V31S, I51V, F106Y
VL: B6 VL with R24Q, E27Q, S30D, N31S, K50S, Y52S, S53Y, Y56S, Q90R, K93S
notes: Human IgG1
[5]
  Kd: 3.3 nM
[6]
  Kd: 4.2 nM

B9: anti-TF antibody 25A5 (antibody, human IgG1, V domains shown)
VH: B6 VH
VL: B6 VL
notes: Human IgG1
[5]
  Kd: 5.2 nM
[6]
  Kd: 5.4 nM

B10: anti-TF antibody 25A5-T (antibody, human IgG1, V domains shown)
VH: B6 VH with V31A
VL: B6 VL
notes: Human IgG1
[5]
  Kd: 4.5 nM
[6]
  Kd: 5.4 nM

B11: anti-TF antibody 25A3 (antibody, human IgG1, V domains shown)
VH: B6 VH
VL: B6 VL with R24Q, E27Q, S30N, S53N, Y56S, Q90L, K93S
notes: Human IgG1
[1]
  IC50, cell viability of A431 cells, Secondary ADC (antibody with anti-human Fc Fab:MMAF), Continuous (FIG. 18B): 0.09 nM
[5]
  Kd: 5.5 nM

B12: 5G9 (humanized TF8-5G9, CNTO 860) (antibody, V domains shown)
VH: QVQLVESGGGVVQPGRSLRLSCKASGFNIKDYYMHWVRQAPGKGLEWIGLIDPENGNTIYDPKFQGRFTISADNSKNTLFLQMDSLRPEDTAVYYCARDNSYYFDYWGQGTPVTVSS
VL: DIQMTQSPSSLSASVGDRVTITCKASQDIRKYLNWYQQKPGKAPKLLIYYATSLADGVPSRFSGSGSGTDYTFTISSLQPEDIATYYCLQHGESPYTFGQGTKLEIT
Human Tissue Factor (TF)
  % FXa at 12.5 nM antibody: 37%
  % FXa at 25 nM antibody: 33%
  % FXa at 50 nM antibody: 30%
  % FXa at 100 nM antibody: 30%

B13: tisotumab vedotin (TF-011) ADC (antibody, V domains shown)
VH: EVQLLESGGGLVQPGGSLRLSCAASGFTFSNYAMSWVRQAPGKGLEWVSSISGSGDYTYYTDSVKGRFTISRDNSKNTLYLQMNSLRAEDTAVYYCARSPWGYYLDSWGQGTLVTVSS
VL: DIQMTQSPPSLSASAGDRVTITCRASQGISSRLAWYQQKPEKAPKSLIYAASSLQSGVPSRFSGSGSGTDFTLTISSLQPEDFATYYCQQYNSYPYTFGQGTKLEIK
modifications: MC-vc-PAB-MMAE on cysteines of the partially reduced antibody (chain and positions not stated), DAR 3-4
[1]
  IC50, cell viability of A431 cells, Primary ADC, Continuous (FIG. 20A): 0.05 nM
[3]
  IC50, cell viability of A431 cells, Primary ADC, 4 hr, followed by washout (FIG. 20B): 0.17 nM
